In doi:10.1101/2022.09.01.506260:

Experiments:
[1] = target: PEAK3^tandem-pS69 peptide pre-complexed with 14-3-3ɣ (human); assay: ITC
[2] = target: PEAK2^IDR1 (N-terminally truncated PEAK2, residues 802-1406) (human) (UniProt Q86YV5); assay: SEC-MALS
[3] = target: PEAK3^tandem-pS69 phosphopeptide (residues 54-74) (human); assay: ITC
[4] = target: full length recombinant PEAK3 (PEAK3^FL) from insect cells (human) (UniProt Q6ZS72); assay: SEC-MALS
Sequence of full length recombinant PEAK3 (PEAK3^FL) from insect cells (human) (Q6ZS72 whole entry): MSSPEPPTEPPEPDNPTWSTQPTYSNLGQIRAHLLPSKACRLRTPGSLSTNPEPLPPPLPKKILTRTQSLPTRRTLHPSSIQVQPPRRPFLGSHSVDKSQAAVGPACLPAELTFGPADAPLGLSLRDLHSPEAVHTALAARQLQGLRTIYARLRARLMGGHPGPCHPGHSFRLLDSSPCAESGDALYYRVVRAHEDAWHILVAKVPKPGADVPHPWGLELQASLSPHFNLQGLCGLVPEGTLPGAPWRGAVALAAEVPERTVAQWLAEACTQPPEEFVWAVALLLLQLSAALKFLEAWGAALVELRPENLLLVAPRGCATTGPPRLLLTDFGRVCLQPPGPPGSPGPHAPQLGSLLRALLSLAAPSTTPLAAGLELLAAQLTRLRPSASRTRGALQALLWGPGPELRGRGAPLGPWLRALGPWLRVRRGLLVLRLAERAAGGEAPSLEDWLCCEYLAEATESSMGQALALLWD

Sequence of CrkII NSH3 domain (CrkII^NSH3) (P46108 134-191): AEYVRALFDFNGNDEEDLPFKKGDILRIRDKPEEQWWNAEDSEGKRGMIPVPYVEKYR
Sequence of PEAK2^IDR1 (N-terminally truncated PEAK2, residues 802-1406) (human) (Q86YV5 802-1406): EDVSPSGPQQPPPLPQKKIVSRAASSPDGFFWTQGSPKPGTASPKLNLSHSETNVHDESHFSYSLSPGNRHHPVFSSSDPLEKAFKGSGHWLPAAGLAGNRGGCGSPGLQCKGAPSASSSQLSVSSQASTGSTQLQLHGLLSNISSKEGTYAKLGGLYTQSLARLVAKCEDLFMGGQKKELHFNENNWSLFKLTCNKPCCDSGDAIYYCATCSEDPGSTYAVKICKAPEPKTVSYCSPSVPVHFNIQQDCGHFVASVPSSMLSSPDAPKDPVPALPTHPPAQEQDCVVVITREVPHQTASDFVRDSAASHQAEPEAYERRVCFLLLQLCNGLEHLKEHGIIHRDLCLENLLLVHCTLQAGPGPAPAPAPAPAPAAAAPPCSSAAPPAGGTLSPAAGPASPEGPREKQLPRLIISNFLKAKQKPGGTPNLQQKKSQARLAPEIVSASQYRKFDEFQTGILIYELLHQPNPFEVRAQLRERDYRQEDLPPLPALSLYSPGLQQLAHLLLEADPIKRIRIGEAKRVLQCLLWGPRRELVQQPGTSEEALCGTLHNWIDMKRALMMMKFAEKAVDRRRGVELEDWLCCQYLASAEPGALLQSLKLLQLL

CrkII NSH3 domain (CrkII^NSH3) (from UniProt P46108-1 134-191) (domain or fragment)
Kd [1]: 3.6 µM

full length CrkII, dimer (CrkII^FL dimer) (from UniProt P46108-1 1-304) (natural protein)
stoichiometry N [2]: 1 ratio (2:2)

human 14-3-3γ (natural protein)
Kd [3]: 0.13 µM

insect cell derived 14-3-3ε,ζ heterodimer (complex)
stoichiometry N (ratio (dimer:dimer)) [4]: 1
